The values below come from paper PMC10783091, “Higher affinities of fibers with cell receptors increase the infection capacity and virulence of human adenovirus type 7 and type 55 compared to type 3” (Microbiology Spectrum, 2023).

In series [1] the target is Recombinant fiber knob of HAdV-7 (human adenovirus type 7) (UniProt P15141). The series can be described thus: SDS-PAGE of unboiled (native) against boiled samples; purified knobs in loading buffer kept on ice (native) or heated at 98°C for 5 min (boiled); 12% SDS-PAGE.
Series [2] has as its target recombinant human desmoglein 2 (DSG2) (human) (UniProt Q14126). The series can be described thus: SPR; DSG2 amine-coupled on a CM5 chip (3,500-3,700 RU), knobs as analytes; 25°C; HBS-EP (10 mM HEPES, 150 mM NaCl, 3 mM EDTA, 0.05% Tween 20, pH 7.4); association 180 s, dissociation 540 s, 30 µL/min; Biacore 8K. (Surface plasmon resonance follows binding to a sensor surface in real time, without labels.)

The target of series [3] is Recombinant fiber knob of HAdV-55 (human adenovirus type 55). The series can be described thus: SDS-PAGE of unboiled (native) against boiled samples; purified knobs in loading buffer kept on ice (native) or heated at 98°C for 5 min (boiled); 12% SDS-PAGE.
Series [4] deals with the molecule itself. Described as above.
The target in series [5] is T1, recombinant human desmoglein 2 (DSG2) (human, UniProt Q14126 50-609).
T1 construct: desmoglein 2, human, recombinant; No catalogue number, limits or tags are printed for the bought protein; The source is named for the SPR; the ELISA says only 'human DSG2'; also called human DSG2; receptor DSG2; source: bought: Creative Biomart
T1 sequence: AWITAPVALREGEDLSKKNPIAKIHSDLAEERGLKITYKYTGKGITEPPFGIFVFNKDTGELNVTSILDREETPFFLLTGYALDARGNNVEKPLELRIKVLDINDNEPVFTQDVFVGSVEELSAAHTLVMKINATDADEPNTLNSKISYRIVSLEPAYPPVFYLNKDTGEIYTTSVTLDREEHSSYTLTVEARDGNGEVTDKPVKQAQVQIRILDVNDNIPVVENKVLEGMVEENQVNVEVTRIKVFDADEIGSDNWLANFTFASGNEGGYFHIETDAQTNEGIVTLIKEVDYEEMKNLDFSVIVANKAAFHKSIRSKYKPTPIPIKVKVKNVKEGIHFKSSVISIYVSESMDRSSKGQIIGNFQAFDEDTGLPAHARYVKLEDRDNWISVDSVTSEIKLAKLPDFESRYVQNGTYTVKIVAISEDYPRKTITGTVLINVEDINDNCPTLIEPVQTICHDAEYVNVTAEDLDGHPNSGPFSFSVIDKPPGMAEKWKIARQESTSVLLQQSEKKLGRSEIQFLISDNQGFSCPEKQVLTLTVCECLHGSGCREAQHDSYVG
The series can be described thus: SPR; DSG2 amine-coupled on a CM5 chip (3,500-3,700 RU), knobs as analytes; 25°C; HBS-EP (10 mM HEPES, 150 mM NaCl, 3 mM EDTA, 0.05% Tween 20, pH 7.4); association 180 s, dissociation 540 s, 30 µL/min; Biacore 8K. Particulars: both partners purified.

Broadly, the stoichiometry N is the number of molecules, sites or subunits per partner or assembly. Broadly, the Kd is a measure of binding affinity in units of concentration. Turning to “Recombinant fiber knob of HAdV-7 (from UniProt P15141 1-343) (domain or fragment)”, in series [1], the stoichiometry N came out at 3. In addition, in series [2], the Kd is 2.21 nM. Turning to “Recombinant fiber knob of HAdV-55 (domain or fragment)”, the stoichiometry N in series [3] came to 3. The Kd in series [2] is 1.25 nM.

B1: Recombinant fiber knob of HAdV-5 (domain or fragment)
chain: GAITVGNKNNDKLTLWTTPAPSPNCRLNAEKDAKLTLVLTKCGSQILATVSVLAVKGSLAPISGTVQSAHLIIRFDENGVLLNNSFLDPEYWNFRNGDLTEGTAYTNAVGFMPNLSAYPKSHGKTAKSNIVSQVYLNGDKTKPVTLTITLNGTQETGDTTPSAYSMSFSWDWSGHNYINEIFATSSYTFSYIAQE
notes: fiber protein of human adenovirus type 5, fiber knob with the last shaft repeat; Negative control knob; also called Ad5K; Ad5k; not shown: His tag, N-terminal, kept
With B1, the “stoichiometry N” value in series [4] was determined as 3.

B2: Recombinant fiber knob of HAdV-3 (domain or fragment)
chain: KLGNGLTFDSSNSIALKNNTLWTGPKPEANCIIEYGKQNPDSKLTLILVKNGGIVNGYVTLMGASDYVNTLFKNKNVSINVELYFDATGHILPDSSSLKTDLELKYKQTADFSARGFMPSTTAYPFVLPNAGTHNENYIFGQCYYKASDGALFPLEVTVMLNKRLPDSRTSYVMTFLWSLNAGLAPETTQATLITSPFTFSYIREDD
notes: fiber protein of human adenovirus type 3, fiber knob with the last shaft repeat; also called Ad3K; Ad3k; not shown: His tag, N-terminal, kept
Turning to B2, the Kd in series [5] was 6.7 nM.
